Assay results as given in paper PMC11199644, “Structural and mechanistic insights into a lysosomal membrane enzyme HGSNAT involved in Sanfilippo syndrome” (Nature Communications, 2024).

Target: the molecule itself
Assay: cryo-EM structure; purified HGSNAT in 20 mM HEPES pH 7.4, 150 mM NaCl, 0.01% GDN; apo (two conformations) or with acetyl-CoA, CoA, acetyl-CoA + MU-βGlcN, CoA + MUF-NAG; six structures, all dimers

B1: heparan sulfate acetyl-CoA:α-glucosaminide N-acetyltransferase (HGSNAT) (enzyme, human, UniProt Q68CP4-2 1-635, looked up)
chain: MSGAGRALAALLLAASVLSAALLAPGGSSGRDAQAAPPRDLDKKRHAELKMDQALLLIHNELLWTNLTVYWKSECCYHCLFQVLVNVPQSPKAGKPSAAAASVSTQHGSILQLNDTLEEKEVCRLEYRFGEFGNYSLLVKNIHNGVSEIACDLAVNEDPVDSNLPVSIAFLIGLAVIIVISFLRLLLSLDDFNNWISKAISSRETDRLINSELGSPSRTDPLDGDVQPATWRLSALPPRLRSVDTFRGIALILMVFVNYGGGKYWYFKHASWNGLTVADLVFPWFVFIMGSSIFLSMTSILQRGCSKFRLLGKIAWRSFLLICIGIIIVNPNYCLGPLSWDKVRIPGVLQRLGVTYFVVAVLELLFAKPVPEHCASERSCLSLRDITSSWPQWLLILVLEGLWLGLTFLLPVPGCPTGYLGPGGIGDFGKYPNCTGGAAGYIDRLLLGDDHLYQHPSSAVLYHTEVAYDPEGILGTINSIVMAFLGVQAGKILLYYKARTKDILIRFTAWCCILGLISVALTKVSENEGFIPVNKNLWSLSYVTTLSSFAFFILLVLYPVVDVKGLWTGTPFFYPGMNSILVYVGHEVFENYFPFQWKLKDNQSHKEHLTQNIVATALWVLIAYILYRKKIFWKI
notes: human HGSNAT, open reading frame of UniProt Q68CP4-2 (short isoform 2, 28 residues from the N-terminal missing); The purified sample held two species, the full-length protein and the auto-cleaved form (alpha and beta chains still together); A thrombin site lies between HGSNAT and the tags, so some residues of it may be left after cleavage; also called TMEM76; heparan-α-glucosaminide …
  stoichiometry N: 2
